± gives the uncertainty stated by the source.
Assay: amyloid nucleation score (Sup35N fusion, yeast selection) (log enrichment); library NNK3; higher = more nucleation; inactive = no reads after selection
Outline: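 The nucleation score equals the log enrichment of output over input reads from DiMSum, centred on the mode score of non-aggregating sequences. It was computed only for sequences with 100 or more input reads. The reads came from Illumina sequencing of plasmid inserts from psi-negative yeast expressing Sup35N fused to peptides of 20 random codons, induced with 100 μM copper sulfate for 24 hours and grown 7 days at 30°C without adenine and uracil.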

| Substance | amyloid nucleation score |
| --- | --- |
| FFISDVGETC | inactive |
| FFLAFKEQPRAYLISISTH | inactive |
| FFLNGVCDCLRIPCTNVYLY | inactive |
| FFMEIKYGWKV | 0.898 ± 0.12 |
| FFMPFRNLIHKLVTTEELYR | inactive |
| FFNIDVHARVSI | inactive |
| FFNKGCMFCSREAVIVQIWG | 2.62 ± 0.082 |
| FFSCGDKLSFF | inactive |
| FFSIT | inactive |
| FFSVGIKLDVFVWFWGEGHL | inactive |
| FFWLMDAPHPRRHVDERQLI | inactive |
| FFWVMISGVFLRRIHDSRSA | inactive |
| FFYNYSRSGLCYIIFSESPV | 1.33 ± 0.095 |
| FFYRVSVSLSRAKI | inactive |
| FGCCKRCRHNRVSKEFSWSC | inactive |
| FGICVDVGRAHIVKRSNRML | inactive |
| FGLITYFLL | 1 ± 0.13 |
| FGLVRTNRDILH | inactive |
| FGMVFHISIACKWTGFSMR | inactive |
| FGQDSPSVLTC | -0.381 ± 0.7 |
| FGRGCHRSMTIGDLVFLLIT | inactive |
| FGRVT | inactive |
| FGSLPRQIMCMPA | inactive |
| FGSVERFLLDPLTGHVGRFF | inactive |

| Substance | amyloid nucleation score |
| --- | --- |
| FGTGDMCKQCRHDVVRHSCL | inactive |
| FGTMSSGYAGGNKKFHPHRY | inactive |
| FGWLYNLNVSDIGTGD | inactive |
| FHNAFAFLSHWGVMVRSFEG | inactive |
| FHVEVVAGCIVGNFGGVCVI | 0.5 ± 0.28 |
| FICCMLIMKVNYDTRLISSM | inactive |
| FICFFGYS | inactive |
| FIGMDIIKYLS | 0.631 ± 0.16 |
| FIITPTYIICQRLFY | inactive |
| FIMNARGVPLEGWWSDGSDK | inactive |
| FIRFWASVSTNCRLPFLLNR | inactive |
| FISPVL | inactive |
| FISRVMGSSR | inactive |
| FIVNSLPDLNALAHMSALLY | inactive |
| FIVSPPSNGANVY | inactive |
| FIVVVTYARWHSRYVSGWVS | inactive |
| FIVYMSTHRA | 1.67 ± 0.11 |
| FIYSFLSYHIWTFKPPVVVG | inactive |
| FKDMFPNLSTCLLIVRM | inactive |
| FKFALPHSNIGFTISSRFGC | 0.478 ± 0.16 |
| FKGTTMIGRYINRVVMWAWS | inactive |
| FKSSVKGEGYGKMGFQLLPF | inactive |
| FKVNLDVP | -0.263 ± 1.4 |
| FLANPWCIVARLCSNHVIVH | inactive |

| Substance | amyloid nucleation score |
| --- | --- |
| FLAWYMTFMV | 0.036 ± 0.88 |
| FLCQFLRFFCIN | 1.04 ± 0.13 |
| FLCWIYDECKGVRCVRLGAI | inactive |
| FLDSSVW | inactive |
| FLFILPDNGPRWCSYTVGNV | inactive |
| FLFLLWCNMMPEMYVIAMNI | inactive |
| FLFTFKIHPLGGMFGVLILS | inactive |
| FLGGRTLTSLPE | inactive |
| FLGIDAPDWSMVSKAIGRMG | inactive |
| FLGVNNNSVVNLYELCD | inactive |
| FLIISCS | inactive |
| FLISIWGGIGNDNVSVVGVG | inactive |
| FLLERLSV | inactive |
| FLLSCK | inactive |
| FLLSVMRELSKYYYIIFSTS | inactive |
| FLLVFC | -0.021 ± 0.3 |
| FLLVYWLVLVFPIVGNLMPE | inactive |
| FLQECRDCQGTVRNKSSAP | inactive |
| FLRCTRPPTASENIFRDINY | inactive |
| FLRYGCMHYLGRMGLY | -0.079 ± 0.34 |
| FLSEIGADTTKSYWDTIPRF | -1.2 ± 2.5 |
| FLSGVTWHAYMIHSVFMDRC | 0.881 ± 0.21 |
| FLVNEEPVQLHGAPVRYFKF | -0.504 ± 1.1 |
| FLYRDDDHSYVSESDLNSCS | inactive |

| Substance | amyloid nucleation score |
| --- | --- |
| FMCNNRSILGICIFYDLRRN | 2.64 ± 0.081 |
| FMGADVAQRMFYKSANGCEW | inactive |
| FMGQFIYLSSRCNSSVDSEV | inactive |
| FMGTRTKLMALVYQEELSRS | inactive |
| FMKEVSGRQDLLRPIMIHNA | inactive |
| FMLWYSPKLFG | inactive |
| FMVDTHFGNAFCFYMYCC | 2.26 ± 0.051 |
| FMVMRVPRCPVDCNVPGGIN | inactive |
| FMYSFDLWYKRLNCLMMLVF | inactive |
| FNALSWSVDFLWYARTTCVD | inactive |
| FNAYNIFVKVPNVMPSS | 2.19 ± 0.09 |
| FNCSARNYGTRFFCLMRAGV | -0.654 ± 1.4 |
| FNDNVVVVSDNVVRRITSKS | inactive |
| FNIGFSSDSYAPWLFMICEM | inactive |
| FNILSLSRTSNYPRHCLFRL | inactive |
| FNMCLASQAVIADLWVVFSW | -0.054 ± 1.3 |
| FNSKRW | inactive |
| FNVVMSRYIYYCVMGVIRMS | inactive |
| FPILS | inactive |
| FPKLWLFNYYVNRRIRSSSF | inactive |
| FPSVIINLGISFFLSSELIV | 1.08 ± 0.11 |
| FPWFTEASPPEMKLDK | 0.816 ± 0.23 |
| FQARTPACPYVCSS | inactive |
| FQFCS | inactive |

| Substance | amyloid nucleation score |
| --- | --- |
| FQSDRVCFIGGWTSNRVGWM | 0.699 ± 0.28 |
| FQYKVSFPDRRASQKRWPLP | inactive |
| FRASVPPEVLPKFARVGMNA | inactive |
| FRDCMVINDMVVWDFCTSCA | inactive |
| FRITNWLSLYDKTEISHASI | inactive |
| FRLILM | inactive |
| FRLVGNIRTFYGYR | inactive |
| FRMNSLRVSLMESVCSSHT | 1.1 ± 0.11 |
| FRPGLYSYMPSC | -0.451 ± 0.88 |
| FRPLFSESHYPASLTGTGHN | inactive |
| FRRYRRCDLGLLSSMRPSAH | inactive |
| FRVLDRSKKVNYRSFLYLIR | inactive |
| FRVSVIFIFGCHMFGVLMTP | inactive |
| FRVTY | inactive |
| FRYNDFMRD | inactive |
| FRYPIYGFFGMTGPTNSLTA | inactive |
| FRYVVHTESYTIESVEVIR | 1.22 ± 0.094 |
| FSAPL | inactive |
| FSCCITNPTYTYCWEMVGVS | inactive |
| FSCDHLGWLVVSVCSGLRWL | inactive |
| FSFPCRTVAWFWYDFHFIGL | inactive |
| FSFYFQDNTIKRWEAIED | inactive |

From the supplement of paper PMC12042874
